Measurements as given in US7211424B1, “Mammalian Subtilisin/kexin isozyme SKI-1: a proprotein convertase with a unique cleavage specificity” (Institut de Recherches Cliniques de Montreal, priority 1999, dated 2007).
Read-outs that look alike come from different tables or passages of the source. Where no end group is shown, it is not given here. [ ]: non-standard residue; d: D form. Tyr(3-NO2) = N[C@@H](Cc1ccc(O)c([N+](=O)[O-])c1)C(=O)O; 2Abz = Nc1ccccc1C(=O)O

What was measured:
SKI-1 = target: T1, SKI-1 (Homo sapiens, UniProt Q14703); type: cell-based; set-up: The VV recombinant of full-length hSKI-1 has been described (10); expressed in transfected cells; host or cells: COS-7 cells co-infected with vv:BDNF and vv:SKI-1 (with vv:WT, vv:PIT or vv:PDX)
T1 sequence (Q14703 187-1052): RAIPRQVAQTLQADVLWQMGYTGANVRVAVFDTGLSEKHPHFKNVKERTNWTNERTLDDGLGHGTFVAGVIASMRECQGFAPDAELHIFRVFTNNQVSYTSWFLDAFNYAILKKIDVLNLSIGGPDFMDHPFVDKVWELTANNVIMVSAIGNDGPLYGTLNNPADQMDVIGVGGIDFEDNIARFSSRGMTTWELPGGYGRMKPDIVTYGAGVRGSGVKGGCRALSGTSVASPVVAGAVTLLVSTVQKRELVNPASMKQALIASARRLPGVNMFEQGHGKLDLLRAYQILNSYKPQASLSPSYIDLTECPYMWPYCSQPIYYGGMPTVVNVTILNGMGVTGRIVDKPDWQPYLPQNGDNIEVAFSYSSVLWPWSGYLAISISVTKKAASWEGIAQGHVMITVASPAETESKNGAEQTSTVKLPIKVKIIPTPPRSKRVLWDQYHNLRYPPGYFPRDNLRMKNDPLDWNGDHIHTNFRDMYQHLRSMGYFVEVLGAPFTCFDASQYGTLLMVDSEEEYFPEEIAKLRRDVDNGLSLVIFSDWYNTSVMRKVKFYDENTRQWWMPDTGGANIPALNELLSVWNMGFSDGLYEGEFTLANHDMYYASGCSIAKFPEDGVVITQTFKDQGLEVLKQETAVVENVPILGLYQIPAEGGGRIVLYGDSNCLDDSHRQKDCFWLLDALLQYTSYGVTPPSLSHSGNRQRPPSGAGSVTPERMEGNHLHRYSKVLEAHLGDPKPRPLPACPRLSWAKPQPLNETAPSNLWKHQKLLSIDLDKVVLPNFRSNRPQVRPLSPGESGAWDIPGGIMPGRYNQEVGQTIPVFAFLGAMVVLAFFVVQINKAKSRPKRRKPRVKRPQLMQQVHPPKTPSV

[1] = test system: endogenous furin-like enzyme(s); test: Ex vivo proBDNF processing in COS-7 cells: 14 kDa BDNF; type: cell-based
BTMD-SKI-1 [2] = target: T2, BTMD-SKI-1 (Homo sapiens, UniProt Q14703); test: pH optimum and calcium dependence of peptide cleavage by BTMD-SKI-1; type: biochemical
T2 sequence (Q14703 187-997 limits assumed): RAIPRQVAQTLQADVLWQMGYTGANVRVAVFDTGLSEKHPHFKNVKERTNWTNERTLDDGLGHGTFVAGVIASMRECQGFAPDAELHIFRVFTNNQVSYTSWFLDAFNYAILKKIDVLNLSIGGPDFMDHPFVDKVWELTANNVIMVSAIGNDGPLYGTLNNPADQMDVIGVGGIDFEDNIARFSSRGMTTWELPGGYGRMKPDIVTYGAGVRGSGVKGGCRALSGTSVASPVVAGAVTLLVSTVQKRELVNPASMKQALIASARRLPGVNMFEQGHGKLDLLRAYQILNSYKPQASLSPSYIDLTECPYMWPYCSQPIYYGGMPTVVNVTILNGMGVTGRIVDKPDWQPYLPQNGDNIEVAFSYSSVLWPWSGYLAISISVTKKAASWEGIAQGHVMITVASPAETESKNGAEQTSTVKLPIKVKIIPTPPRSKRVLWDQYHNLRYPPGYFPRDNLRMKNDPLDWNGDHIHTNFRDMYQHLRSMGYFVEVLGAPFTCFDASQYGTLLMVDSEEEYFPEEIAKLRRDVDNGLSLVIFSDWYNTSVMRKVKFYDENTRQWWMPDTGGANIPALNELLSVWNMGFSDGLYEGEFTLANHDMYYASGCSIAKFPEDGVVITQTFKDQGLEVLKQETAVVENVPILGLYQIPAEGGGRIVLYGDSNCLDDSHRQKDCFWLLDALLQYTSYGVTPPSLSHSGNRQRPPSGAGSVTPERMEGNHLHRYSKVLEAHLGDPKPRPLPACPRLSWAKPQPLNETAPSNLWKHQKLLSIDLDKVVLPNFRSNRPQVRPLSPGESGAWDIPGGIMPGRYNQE
T2 sequence (Q14703 17-137 partner limits assumed): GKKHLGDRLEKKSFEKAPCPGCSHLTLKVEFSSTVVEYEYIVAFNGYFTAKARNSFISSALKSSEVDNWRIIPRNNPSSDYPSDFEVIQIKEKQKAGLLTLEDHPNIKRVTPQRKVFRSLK
Description: pH Optimum, Calcium-Dependence and Inhibitor Profile—The protocols used were essentially the same as reported previously (13). Stocks of the buffer described above were adjusted to pH 5.0–8.5 at 0.5 unit increments by addition of either acetic acid or sodium hydroxide. In order to investigate the calcium requirement of SKI-1, increasing concentrations of Ca^2+-acetate were used ranging from 0 to 10 mM.

[3] = target: T3, 98 kDa shed form of SKI-1 (sSKI-1) (human, UniProt Q14703 187-996); test: cell-based or functional assay
T3 sequence: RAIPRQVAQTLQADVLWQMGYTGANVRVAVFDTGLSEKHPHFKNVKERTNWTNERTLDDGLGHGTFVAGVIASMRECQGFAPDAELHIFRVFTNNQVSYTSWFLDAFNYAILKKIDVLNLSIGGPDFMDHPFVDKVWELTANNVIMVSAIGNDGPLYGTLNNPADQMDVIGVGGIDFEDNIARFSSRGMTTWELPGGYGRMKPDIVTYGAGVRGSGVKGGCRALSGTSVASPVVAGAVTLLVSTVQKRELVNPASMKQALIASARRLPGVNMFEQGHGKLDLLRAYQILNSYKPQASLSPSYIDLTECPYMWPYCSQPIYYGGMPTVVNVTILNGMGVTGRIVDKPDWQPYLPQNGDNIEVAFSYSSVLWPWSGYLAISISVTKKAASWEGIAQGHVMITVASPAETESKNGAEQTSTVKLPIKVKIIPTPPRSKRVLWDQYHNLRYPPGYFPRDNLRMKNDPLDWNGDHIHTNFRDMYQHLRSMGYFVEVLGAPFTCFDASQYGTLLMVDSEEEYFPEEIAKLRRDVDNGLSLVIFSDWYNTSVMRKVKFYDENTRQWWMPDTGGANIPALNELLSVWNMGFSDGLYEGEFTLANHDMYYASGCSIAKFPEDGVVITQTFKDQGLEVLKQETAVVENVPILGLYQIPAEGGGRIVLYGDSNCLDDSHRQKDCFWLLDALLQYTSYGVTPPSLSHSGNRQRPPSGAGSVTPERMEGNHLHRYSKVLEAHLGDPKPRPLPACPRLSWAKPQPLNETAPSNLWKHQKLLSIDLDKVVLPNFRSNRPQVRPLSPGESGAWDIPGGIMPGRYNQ

BTMD-SKI-1 [4] = target: T4, BTMD-SKI-1 (human, UniProt Q14703 187-997); test: Ki(app) from Dixon plots; inhibition of peptide IV hydrolysis by BTMD-SKI-1 medium (RP-HPLC), prosegment preincubated with the enzyme for 30 min
T4 construct: The construct encodes aa 1-997 plus hexa-His; It was secreted from VV-infected BSC40 or LoVo cells and used as concentrated medium or after metal chelation purification; The secreted enzyme stays associated with the ~14 kDa prosegment fragment; also called bSKI-1; BTMD-hSKI-1
T4 sequence: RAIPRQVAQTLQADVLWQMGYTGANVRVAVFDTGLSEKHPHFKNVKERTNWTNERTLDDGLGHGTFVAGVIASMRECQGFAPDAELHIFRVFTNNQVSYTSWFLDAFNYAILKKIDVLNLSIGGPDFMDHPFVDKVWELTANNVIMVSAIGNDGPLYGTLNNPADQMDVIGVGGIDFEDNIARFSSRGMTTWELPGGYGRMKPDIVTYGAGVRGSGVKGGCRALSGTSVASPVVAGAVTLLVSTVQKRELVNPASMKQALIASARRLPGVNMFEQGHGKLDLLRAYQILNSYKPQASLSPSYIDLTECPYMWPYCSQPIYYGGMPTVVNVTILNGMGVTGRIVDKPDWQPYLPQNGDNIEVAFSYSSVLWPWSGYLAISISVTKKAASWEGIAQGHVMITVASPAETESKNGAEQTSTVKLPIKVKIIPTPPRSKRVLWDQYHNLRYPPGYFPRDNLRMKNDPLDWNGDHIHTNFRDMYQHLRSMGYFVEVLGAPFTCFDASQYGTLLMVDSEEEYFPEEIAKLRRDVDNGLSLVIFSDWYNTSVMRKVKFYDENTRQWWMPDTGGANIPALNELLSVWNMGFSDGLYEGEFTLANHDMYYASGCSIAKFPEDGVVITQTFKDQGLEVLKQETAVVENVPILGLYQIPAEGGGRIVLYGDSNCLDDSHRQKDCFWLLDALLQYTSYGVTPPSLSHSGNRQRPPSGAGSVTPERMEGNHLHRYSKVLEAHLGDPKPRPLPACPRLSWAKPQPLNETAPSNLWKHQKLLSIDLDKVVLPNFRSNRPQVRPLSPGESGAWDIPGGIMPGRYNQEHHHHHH

BTMD-hSKI-1 = target: T5, BTMD-hSKI-1 (Homo sapiens, UniProt Q14703); type: biochemical
T5 sequence (Q14703 187-997 limits assumed): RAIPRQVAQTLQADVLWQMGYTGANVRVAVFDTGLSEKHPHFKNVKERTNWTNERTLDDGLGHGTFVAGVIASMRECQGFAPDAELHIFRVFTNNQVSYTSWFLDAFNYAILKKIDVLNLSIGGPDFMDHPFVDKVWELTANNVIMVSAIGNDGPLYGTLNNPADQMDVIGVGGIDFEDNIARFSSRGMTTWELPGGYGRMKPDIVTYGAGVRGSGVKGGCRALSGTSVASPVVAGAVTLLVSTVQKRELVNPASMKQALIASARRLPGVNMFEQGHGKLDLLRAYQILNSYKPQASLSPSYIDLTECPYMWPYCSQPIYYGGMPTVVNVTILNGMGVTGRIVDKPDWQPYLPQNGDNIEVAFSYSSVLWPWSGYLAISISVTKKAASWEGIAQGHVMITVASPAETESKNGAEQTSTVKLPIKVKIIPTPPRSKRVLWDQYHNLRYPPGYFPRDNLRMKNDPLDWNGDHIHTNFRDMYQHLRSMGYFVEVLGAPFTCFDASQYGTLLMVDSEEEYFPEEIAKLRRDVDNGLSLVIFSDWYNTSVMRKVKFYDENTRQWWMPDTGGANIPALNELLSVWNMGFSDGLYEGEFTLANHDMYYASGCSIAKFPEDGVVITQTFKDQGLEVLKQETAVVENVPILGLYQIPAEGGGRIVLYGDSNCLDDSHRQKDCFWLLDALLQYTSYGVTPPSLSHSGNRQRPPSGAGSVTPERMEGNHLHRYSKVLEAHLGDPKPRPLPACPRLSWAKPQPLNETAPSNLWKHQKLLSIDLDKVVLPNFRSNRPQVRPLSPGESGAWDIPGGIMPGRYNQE

[5] = COS-7 cells co-expressing proBDNF and SKI-1

α1-antitrypsin Portland [α1-PDX]
level of the 28 kDa BDNF product (SKI-1): neither α1-PIT nor α1-PDX affect the level of the 28 kDa product | production of the 14 kDa BDNF [1]: selectively blocks the production of the 14 kDa BDNF

CNc1ccc2oc(C[C@H]3O[C@@]4(CC[C@H]3C)O[C@H]([C@H](C)C(=O)c3ccc[nH]3)[C@H](C)C[C@H]4C)nc2c1C(=O)O [Peptide A23187]
level of the 28 kDa BDNF product (SKI-1; [5]): abolished | production of the 14 kDa BDNF [1, 5]: abolished

KAGSRGLTSLADTF [I]
activity retained (BTMD-SKI-1 [2]; at pH 5.0): about 30% | activity retained (BTMD-SKI-1 [2]; at pH 8.5): ~55%

B1: peptide X, Q-hSKI-1 (132-142): Abz-VFRSLKYAESD-Y(NO2)-A (peptide)
peptide: [2Abz]VFRSLKYAESD[Tyr(3-NO2)]A-NH2
modifications: N-terminus assumed
SMILES: CC(C)C[C@H](NC(=O)[C@H](CO)NC(=O)[C@H](CCCNC(=N)N)NC(=O)[C@H](Cc1ccccc1)NC(=O)[C@@H](NC(=O)c1ccccc1N)C(C)C)C(=O)N[C@@H](CCCCN)C(=O)N[C@@H](Cc1ccc(O)cc1)C(=O)N[C@@H](C)C(=O)N[C@@H](CCC(=O)O)C(=O)N[C@@H](CO)C(=O)N[C@@H](CC(=O)O)C(=O)N[C@@H](Cc1ccc(O)c([N+](=O)[O-])c1)C(=O)N[C@@H](C)C(N)=O
kinetic parameters relative to peptide IV [3]: ~3 fold

B2: peptide XI, Q-hSKI-1 (134-142): Abz-RSLKYAESD-Y(NO2)-A (peptide)
peptide: [2Abz]RSLKYAESD[Tyr(3-NO2)]A-NH2
modifications: N-terminus assumed
SMILES: CC(C)C[C@H](NC(=O)[C@H](CO)NC(=O)[C@H](CCCNC(=N)N)NC(=O)c1ccccc1N)C(=O)N[C@@H](CCCCN)C(=O)N[C@@H](Cc1ccc(O)cc1)C(=O)N[C@@H](C)C(=O)N[C@@H](CCC(=O)O)C(=O)N[C@@H](CO)C(=O)N[C@@H](CC(=O)O)C(=O)N[C@@H](Cc1ccc(O)c([N+](=O)[O-])c1)C(=O)N[C@@H](C)C(N)=O
kinetic parameters relative to peptide IV [3]: ~16 fold

B3: PS2 (SKI-1 prosegment construct extending to Ala188, hexa-His tag) (other)
chain: KKHLGDRLEKKSFEKAPCPGCSHLTLKVEFSSTVVEYEYIVAFNGYFTAKARNSFISSALKSSEVDNWRIIPRNNPSSDYPSDFEVIQIKEKQKAGLLTLEDHPNIKRVTPQRKVFRSLKYAESDPTVPCNETRWSQKWQSSRPLRRASLSLGSGFWHATGRHSSRRLLRAHHHHHH
notes: Bacterial recombinant (pET24b, E. coli BL21); The start at aa 18 follows the sense primer and claim 3; Any vector-derived residues are not described
Ki (BTMD-SKI-1 [4]): 97.5 nM | inhibitory potency after digestion with carboxypeptidase B to eliminate the His-tag (BTMD-hSKI-1): not affected | Ki (BTMD-hSKI-1; read-out: Ki(app)): 97 nM

B4: PS3 (SKI-1 prosegment construct extending to Leu197, hexa-His tag) (other)
chain: KKHLGDRLEKKSFEKAPCPGCSHLTLKVEFSSTVVEYEYIVAFNGYFTAKARNSFISSALKSSEVDNWRIIPRNNPSSDYPSDFEVIQIKEKQKAGLLTLEDHPNIKRVTPQRKVFRSLKYAESDPTVPCNETRWSQKWQSSRPLRRASLSLGSGFWHATGRHSSRRLLRAIPRQVAQTLHHHHHH
notes: Bacterial recombinant (pET24b, E. coli BL21); Any vector-derived residues are not described
Ki (BTMD-SKI-1 [4]): 127 nM
